From paper PMC8149476 (Cell Reports Medicine, 2021) come the findings set out here.

Assay [1] concerns the target human NOTCH3 NRR_AviHis recombinant protein (Homo sapiens, UniProt Q9UM47). Kind of assay: SPR. (In general: Surface plasmon resonance follows binding to a sensor surface in real time, without labels.)
In assay [2] the target is human NOTCH3 receptor expressed on U2OS cells (U2OS-hN3) (human, UniProt Q9UM47). Put plainly: ELISA. A general note: An ELISA detects its analyte on a solid surface through an enzyme-linked reagent.
For assay [3], the target named is mouse NOTCH3 (mN3) expressed on U2OS cells (U2OS-mN3) (mouse, UniProt Q61982). Put plainly: ELISA.
The target in assay [4] is human NOTCH1 receptor expressed on U2OS cells (U2OS-hN1) (Homo sapiens, UniProt P46531). Kind of assay: ELISA.
In assay [5] the target is mouse NOTCH1 receptor expressed on U2OS cells (U2OS-mN1) (Mus musculus, UniProt Q01705). Put plainly: ELISA.
The target of assay [6] is NOTCH3 endogenous on MDA-MB-468 cells (human (endogenous in MDA-MB-468), UniProt Q9UM47). Kind of assay: immunostaining of cells or tissue.
NOTCH3 endogenous on MDA-MB-468 cells, sequence (Q9UM47 40-2321): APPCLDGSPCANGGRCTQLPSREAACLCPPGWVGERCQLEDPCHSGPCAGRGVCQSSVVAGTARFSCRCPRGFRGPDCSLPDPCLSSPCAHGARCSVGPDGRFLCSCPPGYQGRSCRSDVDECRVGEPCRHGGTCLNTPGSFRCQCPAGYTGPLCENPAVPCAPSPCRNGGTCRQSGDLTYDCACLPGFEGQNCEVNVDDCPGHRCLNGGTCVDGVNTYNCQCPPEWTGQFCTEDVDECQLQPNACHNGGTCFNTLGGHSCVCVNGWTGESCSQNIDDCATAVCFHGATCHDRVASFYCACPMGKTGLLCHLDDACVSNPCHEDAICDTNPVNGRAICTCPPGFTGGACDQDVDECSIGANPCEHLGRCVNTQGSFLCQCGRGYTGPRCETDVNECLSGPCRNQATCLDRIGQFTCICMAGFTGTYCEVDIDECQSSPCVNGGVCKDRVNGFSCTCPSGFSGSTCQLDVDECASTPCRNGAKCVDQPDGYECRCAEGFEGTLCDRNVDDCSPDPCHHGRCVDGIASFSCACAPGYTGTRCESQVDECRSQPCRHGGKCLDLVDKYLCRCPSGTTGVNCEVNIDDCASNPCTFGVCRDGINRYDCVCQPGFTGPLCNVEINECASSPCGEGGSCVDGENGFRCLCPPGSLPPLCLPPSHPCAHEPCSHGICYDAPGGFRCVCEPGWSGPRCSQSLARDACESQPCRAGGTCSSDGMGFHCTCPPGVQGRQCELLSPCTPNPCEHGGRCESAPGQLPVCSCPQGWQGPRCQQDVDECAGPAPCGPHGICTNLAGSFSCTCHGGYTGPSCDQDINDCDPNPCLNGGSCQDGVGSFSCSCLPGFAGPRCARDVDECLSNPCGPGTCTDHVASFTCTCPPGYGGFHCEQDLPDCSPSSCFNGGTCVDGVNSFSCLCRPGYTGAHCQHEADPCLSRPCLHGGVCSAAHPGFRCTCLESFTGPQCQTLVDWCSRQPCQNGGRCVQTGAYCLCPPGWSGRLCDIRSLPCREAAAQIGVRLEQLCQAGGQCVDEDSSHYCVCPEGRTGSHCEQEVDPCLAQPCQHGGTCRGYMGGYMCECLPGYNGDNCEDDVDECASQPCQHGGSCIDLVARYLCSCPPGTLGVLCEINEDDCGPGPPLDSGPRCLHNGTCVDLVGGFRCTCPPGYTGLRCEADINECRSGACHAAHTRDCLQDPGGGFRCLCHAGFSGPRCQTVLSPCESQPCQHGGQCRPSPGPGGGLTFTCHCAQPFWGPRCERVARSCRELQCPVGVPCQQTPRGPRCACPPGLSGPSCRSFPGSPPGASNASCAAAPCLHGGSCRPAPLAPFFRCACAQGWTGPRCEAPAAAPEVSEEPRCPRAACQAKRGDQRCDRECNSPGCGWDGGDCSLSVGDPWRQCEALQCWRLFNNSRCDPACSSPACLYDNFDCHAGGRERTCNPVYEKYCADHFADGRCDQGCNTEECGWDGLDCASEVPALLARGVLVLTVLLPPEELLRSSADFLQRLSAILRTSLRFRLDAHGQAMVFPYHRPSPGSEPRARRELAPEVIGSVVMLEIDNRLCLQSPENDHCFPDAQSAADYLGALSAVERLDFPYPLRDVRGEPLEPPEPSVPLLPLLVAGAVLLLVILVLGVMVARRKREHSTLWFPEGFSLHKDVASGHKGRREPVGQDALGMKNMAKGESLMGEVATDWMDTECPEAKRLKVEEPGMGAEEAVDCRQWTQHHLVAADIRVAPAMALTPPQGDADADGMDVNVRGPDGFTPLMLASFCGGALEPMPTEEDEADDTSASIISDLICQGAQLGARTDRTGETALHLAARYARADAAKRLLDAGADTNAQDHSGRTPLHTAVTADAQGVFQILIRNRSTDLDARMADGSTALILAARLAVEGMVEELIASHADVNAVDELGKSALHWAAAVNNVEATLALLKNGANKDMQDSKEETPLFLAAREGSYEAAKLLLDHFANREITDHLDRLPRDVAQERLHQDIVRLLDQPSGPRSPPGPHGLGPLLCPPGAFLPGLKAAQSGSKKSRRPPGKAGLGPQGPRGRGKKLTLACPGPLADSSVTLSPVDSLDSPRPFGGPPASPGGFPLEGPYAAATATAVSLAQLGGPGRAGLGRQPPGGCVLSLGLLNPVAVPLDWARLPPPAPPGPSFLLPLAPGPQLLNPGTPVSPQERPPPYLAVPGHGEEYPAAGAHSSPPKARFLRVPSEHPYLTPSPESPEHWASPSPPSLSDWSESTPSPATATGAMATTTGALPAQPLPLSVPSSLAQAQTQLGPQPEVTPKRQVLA

human NOTCH3 receptor expressed on U2OS cells (U2OS-hN3), sequence (Q9UM47 40-2321): as above
human NOTCH1 receptor expressed on U2OS cells (U2OS-hN1), sequence (P46531 19-2555): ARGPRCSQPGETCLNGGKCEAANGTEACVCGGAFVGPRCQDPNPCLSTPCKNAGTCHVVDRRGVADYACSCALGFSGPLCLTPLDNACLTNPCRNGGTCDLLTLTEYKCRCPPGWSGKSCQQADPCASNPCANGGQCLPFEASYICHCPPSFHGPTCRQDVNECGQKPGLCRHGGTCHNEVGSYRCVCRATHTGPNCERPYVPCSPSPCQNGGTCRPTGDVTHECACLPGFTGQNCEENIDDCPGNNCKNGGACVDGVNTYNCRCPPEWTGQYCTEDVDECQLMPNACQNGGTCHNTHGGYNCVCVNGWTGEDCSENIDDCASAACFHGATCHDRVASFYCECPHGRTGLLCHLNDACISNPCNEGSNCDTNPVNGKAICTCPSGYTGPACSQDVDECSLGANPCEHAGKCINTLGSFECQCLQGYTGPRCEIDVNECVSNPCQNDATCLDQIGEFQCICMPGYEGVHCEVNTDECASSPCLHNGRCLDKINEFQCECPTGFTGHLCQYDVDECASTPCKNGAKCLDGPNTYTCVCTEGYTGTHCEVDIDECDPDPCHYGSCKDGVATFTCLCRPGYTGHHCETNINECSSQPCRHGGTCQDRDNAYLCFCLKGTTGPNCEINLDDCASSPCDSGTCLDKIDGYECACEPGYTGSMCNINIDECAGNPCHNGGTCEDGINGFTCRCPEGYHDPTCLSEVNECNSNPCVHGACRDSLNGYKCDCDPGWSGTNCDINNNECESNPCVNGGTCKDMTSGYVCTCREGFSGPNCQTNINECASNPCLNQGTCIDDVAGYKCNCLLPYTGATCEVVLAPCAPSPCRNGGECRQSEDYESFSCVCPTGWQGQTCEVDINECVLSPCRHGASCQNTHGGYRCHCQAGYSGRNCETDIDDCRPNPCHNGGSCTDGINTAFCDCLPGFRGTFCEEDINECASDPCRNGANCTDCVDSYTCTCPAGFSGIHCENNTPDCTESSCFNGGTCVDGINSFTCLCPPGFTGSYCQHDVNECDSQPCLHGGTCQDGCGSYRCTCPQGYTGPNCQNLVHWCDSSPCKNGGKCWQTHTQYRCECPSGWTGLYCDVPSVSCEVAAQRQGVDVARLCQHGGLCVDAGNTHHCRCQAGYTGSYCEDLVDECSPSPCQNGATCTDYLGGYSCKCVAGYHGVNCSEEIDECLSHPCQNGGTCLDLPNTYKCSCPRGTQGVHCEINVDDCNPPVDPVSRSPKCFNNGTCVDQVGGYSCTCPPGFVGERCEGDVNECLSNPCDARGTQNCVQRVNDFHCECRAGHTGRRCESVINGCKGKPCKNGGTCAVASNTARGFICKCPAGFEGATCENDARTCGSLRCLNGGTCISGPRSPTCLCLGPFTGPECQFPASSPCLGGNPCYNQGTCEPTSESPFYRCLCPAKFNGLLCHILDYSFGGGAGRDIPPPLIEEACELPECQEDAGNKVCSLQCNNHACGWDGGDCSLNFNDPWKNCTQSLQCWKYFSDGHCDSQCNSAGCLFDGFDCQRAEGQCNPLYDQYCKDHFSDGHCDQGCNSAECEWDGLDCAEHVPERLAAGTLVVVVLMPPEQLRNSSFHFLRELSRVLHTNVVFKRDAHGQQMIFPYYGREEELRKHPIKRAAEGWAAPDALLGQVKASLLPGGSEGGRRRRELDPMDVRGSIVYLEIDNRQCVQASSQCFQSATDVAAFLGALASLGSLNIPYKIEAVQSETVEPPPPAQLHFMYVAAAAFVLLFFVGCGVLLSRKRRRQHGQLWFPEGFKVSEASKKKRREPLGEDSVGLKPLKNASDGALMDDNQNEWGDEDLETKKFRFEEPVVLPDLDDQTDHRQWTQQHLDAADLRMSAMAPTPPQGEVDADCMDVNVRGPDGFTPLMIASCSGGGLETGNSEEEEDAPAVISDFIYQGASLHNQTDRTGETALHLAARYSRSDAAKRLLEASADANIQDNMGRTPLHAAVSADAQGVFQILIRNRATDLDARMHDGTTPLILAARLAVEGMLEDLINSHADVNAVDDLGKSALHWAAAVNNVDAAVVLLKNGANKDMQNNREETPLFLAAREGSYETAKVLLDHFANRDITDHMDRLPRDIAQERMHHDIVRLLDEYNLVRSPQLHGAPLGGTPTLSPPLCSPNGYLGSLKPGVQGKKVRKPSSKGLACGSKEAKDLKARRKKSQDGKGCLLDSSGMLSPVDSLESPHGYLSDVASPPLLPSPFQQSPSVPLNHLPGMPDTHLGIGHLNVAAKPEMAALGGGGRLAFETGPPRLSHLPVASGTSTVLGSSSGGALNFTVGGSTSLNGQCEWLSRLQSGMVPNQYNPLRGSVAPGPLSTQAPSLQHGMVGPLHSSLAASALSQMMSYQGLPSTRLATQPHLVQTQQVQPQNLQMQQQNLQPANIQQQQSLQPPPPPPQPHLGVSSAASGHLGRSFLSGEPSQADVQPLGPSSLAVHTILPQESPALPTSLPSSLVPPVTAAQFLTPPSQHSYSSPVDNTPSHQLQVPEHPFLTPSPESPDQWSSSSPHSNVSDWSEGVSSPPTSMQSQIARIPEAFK

B1: anti-NOTCH3 inhibitory (anti-N3(i)) mAb clone 75 (antibody, V domains shown)
VH: EVQLVESGGGLVQPGGSLRLSCAASGYAFTDYWMTWVRQAPGKGLEWVAEISPNSGGTNFNEKFKGRFTISVDNAKNSLYLQMNSLRAEDTAVYYCARGEIRYNWFAYWGQGTLVTVSS
VL: DIQMTQSPSSLSASVGDRVTITCKASQNVGNNIAWYQQKPGKAPKLLIYYASNRYTGVPSRFSGSGYGTDFTLTISSLQPEDFATYYCQRLYNSPFTFGGGTKVEIK
B1: the binding result is given as “binds” in assay [1]; “binds” in assay [2]; “no binding” in assay [3]; “no binding” in assay [4]; “no binding” in assay [5]; “binds” in assay [6].

B2: Anti-N3(i)-vc0101 ADC (antibody, V domains shown)
VH: B1 VH
VL: B1 VL
On to B2, for which, in assay [2], the binding result was “binds”.
